Consider two variants from IntAct's records for PubMed 18589438.

To fix the notation:
B1: Bcl-2-binding component 3 (Mus musculus), Q99ML1 (parent)
chain: MARARQEGSSPEPVEGLARDSPRPFPLGRLMPSAVSCSLCEPGLPAAPAAPALLPAAYLCAPTAPPAVTAALGGPRWPGGHRSRPRGPRPDGPQPSLSPAQQHLESPVPSAPEALAGGPTQAAPGVRVEEEEWAREIGAQLRRMADDLNAQYERRRQEEQHRHRPSPWRVMYNLFMGLLPLPRDPGAPEMEPN
B2: Phorbol-12-myristate-13-acetate-induced protein 1 (Mus musculus), Q9JM54 (parent)
chain: MPGRKARRNAPVNPTRAELPPEFAAQLRKIGDKVYCTWSAPDITVVLAQMPGKSQKSRMRSPSPTRVPADLKDECAQLRRIGDKVNLRQKLLNLISKLFNLVT

Variants of B1 are the subject of one assay. The settings on record: with mcl1_mouse Mcl1, P97287.
Sequence of mcl1_mouse Mcl1, P97287 (P97287 whole entry): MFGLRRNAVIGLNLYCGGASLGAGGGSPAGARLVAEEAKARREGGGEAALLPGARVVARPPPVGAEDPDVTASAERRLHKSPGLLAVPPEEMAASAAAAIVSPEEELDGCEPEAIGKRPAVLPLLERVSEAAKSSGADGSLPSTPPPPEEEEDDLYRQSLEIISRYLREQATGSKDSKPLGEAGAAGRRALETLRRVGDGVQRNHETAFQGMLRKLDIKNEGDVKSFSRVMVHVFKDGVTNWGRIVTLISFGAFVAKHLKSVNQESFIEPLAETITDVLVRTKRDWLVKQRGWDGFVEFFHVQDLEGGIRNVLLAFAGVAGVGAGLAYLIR
Regarding M144I, the “effect of a mutation on the interaction” value is given as “increasing interaction”.

Variants of B2 are the subject of a further assay. The conditions noted are these: with mcl1_mouse Mcl1, P97287.
Take E74F: the “effect of a mutation on the interaction” value is listed as “increasing interaction strength”.
